Test results as given in patent publication US5840530.
pKd: −log10 of the molar value.

Tests used:
[1] = biological target: recombinant human IL-12 beta2 receptor protein expressed from the B5-10 plasmid on COS cells (human); assay: equilibrium binding of 125I-labeled IL-12 to transfected COS cells, Scatchard analysis, single site model
[2] = biological target: recombinant human IL-12 beta1 receptor protein (human); assay: as above

recombinant human IL-12 (Interleukin-12) (from UniProt P29460) (ligand)
pKd [1]: 8.30 to 8.70
pKd [2]: 8.30 to 8.70
